The target in experiment [1] is insulin receptor, isoform B (human) (UniProt P06213). Kind of experiment: competitive displacement, antibody-capture microtiter plate, IR isoform B.
The target is the same in experiment [2]. Kind of experiment: competitive displacement of 125I-insulin, antibody-capture microtiter plate, IR isoform B. Background: Displacement assays read how much labelled ligand stays bound in the presence of the test substance.
Experiment [3] concerns the target Type I insulin-like growth factor receptor (UniProt P08069). Kind of experiment: competitive displacement of 125I-IGF-1, antibody-capture microtiter plate, IGFR.
Experiment [4] has as its target IR (Homo sapiens, UniProt P06213). Particulars: relative to human insulin; cited from earlier work.

His^A4-His^A8-His^B1-insulin (ligand), sequence (chain): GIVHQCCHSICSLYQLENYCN
His^A4-His^A8-His^B1-insulin (ligand), sequence (chain): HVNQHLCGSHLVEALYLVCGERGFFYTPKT
Ala^A4-His^A8-DKP-insulin (ligand), sequence (chain): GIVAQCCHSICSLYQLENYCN
Ala^A4-His^A8-DKP-insulin (ligand), sequence (chain): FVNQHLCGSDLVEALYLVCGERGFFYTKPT

As to Ala^A4-His^A8-DKP-insulin (ligand), the relative affinity for IR (percent of human insulin) in experiment [1] amounted to 384%. Substance Dab^A8-insulin (ligand) yielded a relative affinity for IR (percent of human insulin) in experiment [2] of 91%. The substance also came in with a relative affinity for IGFR (percent of IGF-I) in experiment [3] of 0.13%. His^A4-His^A8-His^B1-insulin (ligand): the relative affinity for IR (percent of human insulin) in experiment [1] is 125%. Consider insulin Detemir®, for which, in experiment [4], the “affinity for IR / receptor binding” value is reported as “decreased affinity”.

The values are drawn from patent publication US20120184488A1, “INSULIN ANALOGUES OF ENHANCED RECEPTOR-BINDING SPECIFICITY” (CASE WESTERN RESERVE UNIVERSITY, priority 2009, published 2012).
